Measurements as given in US20050123900A1.

What was measured:
[1] = target: HIV-1 Env UG037.8 on 293 cells (HIV-1 isolate UG037.8); test: cell-based or functional assay
[2] = target: HIV-1 Env BR025.9 on 293 cells (HIV-1 isolate BR025.9); test: cell-based or functional assay
[3] = target: HIV-1 Env RW020.5 on 293 cells (HIV-1 isolate RW020.5); test: cell-based or functional assay
[4] = target: HIV-1 Env HT593.1 on 293 cells (HIV-1 isolate HT593.1); test: cell-based or functional assay
[5] = target: HIV-1 Env TH022.4 on 293 cells (HIV-1 isolate TH022.4); test: cell-based or functional assay
[6] = target: HIV-1 Env US715.6 on 293 cells (HIV-1 isolate US715.6); test: cell-based or functional assay
[7] = target: HIV-1 Env UG975.10 on 293 cells (HIV-1 isolate UG975.10); test: cell-based or functional assay
[8] = target: HIV-1 Env NL4-3 on 293 cells (HIV-1 isolate NL4-3); test: cell-based or functional assay
[9] = target: HIV-1 Env 89.6 on 293 cells (HIV-1 isolate 89.6) (UniProt Q73372); test: cell-based or functional assay
[10] = target: HIV-1 Env BR029.2 on 293 cells (HIV-1 isolate BR029.2); test: cell-based or functional assay
[11] = target: HIV-1 Env US005.11 on 293 cells (HIV-1 isolate US005.11); test: cell-based or functional assay
[12] = target: gp120 HXB2 (HIV-1 isolate HXB2) (UniProt P04578); test: ELISA, antigen coated directly on plate, soluble Fab titrated, Langmuir fit
[13] = target: gp120 JR-FL (HIV-1 isolate JR-FL) (UniProt P20871); test: as above
[14] = target: gp120 89.6 (HIV-1 isolate 89.6) (UniProt Q73372); test: as above
[15] = target: sCD4-gp120 89.6 complex (HIV-1 isolate 89.6) (UniProt Q73372); test: ELISA, sCD4-gp120 complex coated directly on plate, soluble Fab titrated, Langmuir fit
[16] = target: sCD4-gp120 JR-FL complex (HIV-1 isolate JR-FL) (UniProt P01730); test: as above
[17] = target: sCD4-gp120 HXB2 complex (HIV-1 isolate HXB2) (UniProt P04578); test: as above
[18] = target: HIV-1 Env #9-131 on pseudotype virus (HIV-1 isolate #9-131); test: cell-based or functional assay
[19] = target: HIV-1 Env VI1399 on pseudotype virus (HIV-1 isolate VI1399); test: cell-based or functional assay
[20] = target: HIV-1 Env Z2Z6 on pseudotype virus (HIV-1 isolate Z2Z6); test: cell-based or functional assay
[21] = target: HIV-1 Env TH966 on pseudotype virus (HIV-1 isolate TH966); test: cell-based or functional assay
[22] = target: HIV-1 Env VI1273 on pseudotype virus (HIV-1 isolate VI1273); test: cell-based or functional assay
[23] = target: HIV-1 Env GX-E14 on pseudotype virus (HIV-1 isolate GX-E14); test: cell-based or functional assay
[24] = target: HIV-1 Env MN-TCLA on pseudotype virus (HIV-1 isolate MN-TCLA) (UniProt P05877); test: cell-based or functional assay
[25] = target: HIV-1 Env #4-4/116 on pseudotype virus (HIV-1 isolate #4-4/116); test: cell-based or functional assay
[26] = target: HIV-1 Env #6-4/41 on pseudotype virus (HIV-1 isolate #6-4/41); test: cell-based or functional assay
[27] = target: HIV-1 Env GX-C44 on pseudotype virus (HIV-1 isolate GX-C44); test: cell-based or functional assay
[28] = target: HIV-1 Env R2 on pseudotype virus (HIV-1 isolate R2); test: cell-based or functional assay
[29] = target: HIV-1 Env #8-4/49 on pseudotype virus (HIV-1 isolate #8-4/49); test: cell-based or functional assay
[30] = target: gp140 UG975-10 (HIV-1 isolate UG975-10); test: ELISA, soluble Fab titrated on Env (direct coat or D7324 capture not given)
[31] = target: gp140 CM243 (HIV-1 isolate CM243); test: as above
[32] = target: gp140 Bal-L (HIV-1 isolate Bal-L); test: as above
[33] = target: gp140 89.6 (HIV-1 isolate 89.6) (UniProt Q73372); test: as above
[34] = target: gp140 MW965.26 (HIV-1 isolate MW965.26); test: as above
[35] = target: gp140 ZR001.3 (HIV-1 isolate ZR001.3); test: as above
[36] = target: gp140 R2 (HIV-1 isolate R2); test: as above
[37] = target: gp140 BR019.10 (HIV-1 isolate BR019.10); test: as above
[38] = target: gp140 UG037.8 (HIV-1 isolate UG037.8); test: as above
[39] = target: gp140 HT593.1 (HIV-1 isolate HT593.1); test: as above
[40] = target: gp140 UG024.2 (HIV-1 isolate UG024.2); test: as above
[41] = target: gp120 IIIB (HIV-1 isolate IIIB); test: ELISA, soluble Fab titrated on Env (gp120 by the footnote; direct coat or D7324 capture not specified)
[42] = target: gp120 IIIB (HIV-1 isolate IIIB); test: ELISA, antigen coated directly on plate, soluble Fab titrated, Langmuir fit
[43] = target: sCD4-gp120 IIIB complex (HIV-1 isolate IIIB) (UniProt P01730); test: ELISA, sCD4-gp120 complex coated directly on plate, soluble Fab titrated, Langmuir fit
[44] = target: HIV-1 Env VI14004 on pseudotype virus (HIV-1 isolate VI14004); test: cell-based or functional assay
[45] = target: HIV-1 Env 92RW020.5 on pseudotype virus (HIV-1 isolate 92RW020.5); test: cell-based or functional assay
[46] = target: HIV-1 Env V5 on pseudotype virus (HIV-1 isolate V5); test: cell-based or functional assay
[47] = target: HIV-1 Env P37 on pseudotype virus (HIV-1 isolate P37); test: cell-based or functional assay

Fab X5
% of fusion inhibition (syncytia count), Fab at 50 µg/ml [1]: 34%
% of fusion inhibition (syncytia count), Fab at 50 µg/ml [2]: 71%
% of fusion inhibition (syncytia count), Fab at 50 µg/ml [3]: 45%
% of fusion inhibition (syncytia count), Fab at 50 µg/ml [4]: 27%
% of fusion inhibition (syncytia count), Fab at 50 µg/ml [5]: 43%
% of fusion inhibition (syncytia count), Fab at 50 µg/ml [6]: 28%
% of fusion inhibition (syncytia count), Fab at 50 µg/ml [7]: 19%
% of fusion inhibition (syncytia count), Fab at 50 µg/ml [8]: 83%
% of fusion inhibition (syncytia count), Fab at 50 µg/ml [9]: 93%
% of fusion inhibition (syncytia count), Fab at 50 µg/ml [10]: 36%
% of fusion inhibition (syncytia count), Fab at 50 µg/ml [11]: 72%

Fab m14
Kd [12]: 0.3 nM
Kd [13]: 0.9 nM
Kd [14]: 5.4 nM
Kd [15]: 7.3 nM
Kd [16]: 1.2 nM
Kd [17]: 0.4 nM
% of fusion inhibition (syncytia count), Fab at 50 µg/ml [1]: 100%
% of fusion inhibition (syncytia count), Fab at 50 µg/ml [2]: 71%
M14 Concentration (µg/ml) of Fab, 50% neutralization endpoint, pseudovirus assay [18]: 100 µg/mL
% of fusion inhibition (syncytia count), Fab at 50 µg/ml [3]: 31%
% of fusion inhibition (syncytia count), Fab at 50 µg/ml [4]: 78%
% of fusion inhibition (syncytia count), Fab at 50 µg/ml [5]: 100%
% of fusion inhibition (syncytia count), Fab at 50 µg/ml [6]: 35%
M14 Concentration (µg/ml) of Fab, 50% neutralization endpoint, pseudovirus assay [19]: > 100 µg/mL
M14 Concentration (µg/ml) of Fab, 50% neutralization endpoint, pseudovirus assay [20]: 50 µg/mL
M14 Concentration (µg/ml) of Fab, 50% neutralization endpoint, pseudovirus assay [21]: > 100 µg/mL
M14 Concentration (µg/ml) of Fab, 50% neutralization endpoint, pseudovirus assay [22]: 3.1 µg/mL
M14 Concentration (µg/ml) of Fab, 50% neutralization endpoint, pseudovirus assay [23]: 100 µg/mL
% of fusion inhibition (syncytia count), Fab at 50 µg/ml [7]: 22%
% of fusion inhibition (syncytia count), Fab at 50 µg/ml [8]: 96%
M14 Concentration (µg/ml) of Fab, 50% neutralization endpoint, pseudovirus assay [24]: 2.24 µg/mL
M14 Concentration (µg/ml) of Fab, 50% neutralization endpoint, pseudovirus assay [25]: > 100 µg/mL
M14 Concentration (µg/ml) of Fab, 50% neutralization endpoint, pseudovirus assay [26]: > 100 µg/mL
M14 Concentration (µg/ml) of Fab, 50% neutralization endpoint, pseudovirus assay [27]: 8.8 µg/mL
M14 Concentration (µg/ml) of Fab, 50% neutralization endpoint, pseudovirus assay [28]: 2.24 µg/mL
% of fusion inhibition (syncytia count), Fab at 50 µg/ml [9]: 100%
% of fusion inhibition (syncytia count), Fab at 50 µg/ml [10]: 71%
% of fusion inhibition (syncytia count), Fab at 50 µg/ml [11]: 95%
M14 Concentration (µg/ml) of Fab, 50% neutralization endpoint, pseudovirus assay [29]: 35.4 µg/mL

Fab m18
EC50 [30]: 0.87 nM
EC50 [31]: 116 nM
EC50 [32]: 0.53 nM
EC50 [33]: 1.17 nM
EC50 [34]: 0.55 nM
EC50 [35]: 1.07 nM
EC50 [36]: 0.13 nM
EC50 [37]: 0.77 nM
EC50 [38]: 0.83 nM
EC50 [39]: 0.25 nM
EC50 [40]: 0.97 nM
EC50 [41]: 0.48 nM
Kd [13]: 0.9 nM
Kd [14]: 1 nM
Kd [42]: 0.08 nM
Kd [15]: 0.9 nM
Kd [16]: 0.7 nM
Kd [43]: 0.09 nM
M18 Concentration (µg/ml) of Fab, 50% neutralization endpoint, pseudovirus assay [44]: < 2 µg/mL
% of fusion inhibition (syncytia count), Fab at 50 µg/ml [1]: 34%
% of fusion inhibition (syncytia count), Fab at 50 µg/ml [2]: 86%
M18 Concentration (µg/ml) of Fab, 50% neutralization endpoint, pseudovirus assay [45]: 3 µg/mL
M18 Concentration (µg/ml) of Fab, 50% neutralization endpoint, pseudovirus assay [18]: > 100 µg/mL
% of fusion inhibition (syncytia count), Fab at 50 µg/ml [3]: 25%
% of fusion inhibition (syncytia count), Fab at 50 µg/ml [4]: 39%
% of fusion inhibition (syncytia count), Fab at 50 µg/ml [5]: 93%
M18 Concentration (µg/ml) of Fab, 50% neutralization endpoint, pseudovirus assay [46]: < 2 µg/mL
% of fusion inhibition (syncytia count), Fab at 50 µg/ml [6]: 97%
M18 Concentration (µg/ml) of Fab, 50% neutralization endpoint, pseudovirus assay [47]: 100 µg/mL
M18 Concentration (µg/ml) of Fab, 50% neutralization endpoint, pseudovirus assay [19]: > 100 µg/mL
M18 Concentration (µg/ml) of Fab, 50% neutralization endpoint, pseudovirus assay [20]: 25 µg/mL
M18 Concentration (µg/ml) of Fab, 50% neutralization endpoint, pseudovirus assay [21]: > 100 µg/mL
M18 Concentration (µg/ml) of Fab, 50% neutralization endpoint, pseudovirus assay [22]: 25 µg/mL
M18 Concentration (µg/ml) of Fab, 50% neutralization endpoint, pseudovirus assay [23]: > 100 µg/mL
% of fusion inhibition (syncytia count), Fab at 50 µg/ml [7]: 56%
% of fusion inhibition (syncytia count), Fab at 50 µg/ml [8]: 92%
M18 Concentration (µg/ml) of Fab, 50% neutralization endpoint, pseudovirus assay [24]: < 1.6 µg/mL
M18 Concentration (µg/ml) of Fab, 50% neutralization endpoint, pseudovirus assay [25]: 6.3 µg/mL
M18 Concentration (µg/ml) of Fab, 50% neutralization endpoint, pseudovirus assay [26]: 100 µg/mL
M18 Concentration (µg/ml) of Fab, 50% neutralization endpoint, pseudovirus assay [27]: > 25 µg/mL
M18 Concentration (µg/ml) of Fab, 50% neutralization endpoint, pseudovirus assay [28]: 1.6 µg/mL
% of fusion inhibition (syncytia count), Fab at 50 µg/ml [9]: 100%
% of fusion inhibition (syncytia count), Fab at 50 µg/ml [10]: 86%
% of fusion inhibition (syncytia count), Fab at 50 µg/ml [11]: 93%
M18 Concentration (µg/ml) of Fab, 50% neutralization endpoint, pseudovirus assay [29]: 5 µg/mL
